Measured values as given in article PMC9482650, “Quantitative fragmentomics allow affinity mapping of interactomes” (Nature Communications, 2022).

T1: PDZRN3_1, Q9UPQ7
T1 sequence (Q9UPQ7 244-349, limits assumed, looked up): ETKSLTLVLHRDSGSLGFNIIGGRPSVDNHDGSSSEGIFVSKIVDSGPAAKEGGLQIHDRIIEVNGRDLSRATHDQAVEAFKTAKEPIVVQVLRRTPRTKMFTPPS

T2: LRRC7, Q96NW7
T2 sequence (Q96NW7 1440-1537, limits assumed, looked up): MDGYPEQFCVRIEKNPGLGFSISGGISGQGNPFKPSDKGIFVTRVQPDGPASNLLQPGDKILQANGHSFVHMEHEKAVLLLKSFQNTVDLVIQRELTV

T3: PDZD2_2, O15018
T3 sequence (O15018 329-429, limits assumed, looked up): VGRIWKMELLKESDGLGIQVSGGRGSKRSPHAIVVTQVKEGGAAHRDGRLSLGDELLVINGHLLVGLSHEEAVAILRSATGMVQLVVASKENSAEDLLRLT

T4: SIPA1L2, Q9P2F8
T4 sequence (Q9P2F8 945-1036, limits assumed, looked up): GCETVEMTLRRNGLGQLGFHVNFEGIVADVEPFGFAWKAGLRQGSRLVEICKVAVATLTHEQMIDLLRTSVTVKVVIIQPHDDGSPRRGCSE

T5: LNX2_3, Q8N448
T5 sequence (Q8N448 463-564, limits assumed, looked up): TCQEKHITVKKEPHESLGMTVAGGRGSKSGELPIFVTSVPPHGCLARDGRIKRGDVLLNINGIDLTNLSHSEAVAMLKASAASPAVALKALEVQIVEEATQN

T6: SHANK1, Q9Y566
T6 sequence (Q9Y566 658-767, limits assumed, looked up): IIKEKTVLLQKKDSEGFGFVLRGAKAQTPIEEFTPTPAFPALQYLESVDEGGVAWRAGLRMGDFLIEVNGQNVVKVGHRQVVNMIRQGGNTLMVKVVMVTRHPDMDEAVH

T7: APBA3_1, O96018
T7 sequence (O96018 389-490, limits assumed, looked up): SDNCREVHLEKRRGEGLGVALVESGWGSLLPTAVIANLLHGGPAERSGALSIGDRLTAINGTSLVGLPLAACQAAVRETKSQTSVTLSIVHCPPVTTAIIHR

T8: NHERF3_4, Q5T2W1
T8 sequence (Q5T2W1 373-468, limits assumed, looked up): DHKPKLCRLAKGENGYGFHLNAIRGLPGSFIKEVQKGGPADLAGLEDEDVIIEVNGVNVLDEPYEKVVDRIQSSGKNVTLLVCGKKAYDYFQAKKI

T9: DLG3_3, Q92796
T9 sequence (Q92796 374-475, limits assumed, looked up): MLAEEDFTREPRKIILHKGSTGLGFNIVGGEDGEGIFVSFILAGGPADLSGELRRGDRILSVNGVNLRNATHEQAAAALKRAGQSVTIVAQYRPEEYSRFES


Tests used:
Assay in all cases: holdup assay
Design in all cases: key: below the threshold = too weak to quantify, mostly under pKd 3.1 to 4
Conditions in all cases: plain residues with an end cap or a label only (N-terminal biotin on a linker: ado-ado)
MAGI1_2, Q96QZ7 = target: MAGI1_2, Q96QZ7
FRMPD4, Q14CM0 = target: FRMPD4, Q14CM0
PDZRN3_1, Q9UPQ7 = target: T1, PDZRN3_1, Q9UPQ7
NHERF4_4, Q86UT5 = target: NHERF4_4, Q86UT5
Inadl_1, Q8NI35 = target: Inadl_1, Q8NI35
AHNAK1, Q09666 = target: AHNAK1, Q09666
GRID2IP_2, A4D2P6 = target: GRID2IP_2, A4D2P6
LRRC7, Q96NW7 = target: T2, LRRC7, Q96NW7
PDZD2_2, O15018 = target: T3, PDZD2_2, O15018
SIPA1L2, Q9P2F8 = target: T4, SIPA1L2, Q9P2F8
LNX1_3, Q8TBB1 = target: LNX1_3, Q8TBB1
SNX27, Q96L92 = target: SNX27, Q96L92
LNX2_3, Q8N448 = target: T5, LNX2_3, Q8N448
SHANK1, Q9Y566 = target: T6, SHANK1, Q9Y566
NOS1, P29475 = target: NOS1, P29475
Inadl_4, Q8NI35 = target: Inadl_4, Q8NI35
DLG5_1, Q8TDM6 = target: DLG5_1, Q8TDM6
Inadl_9, Q8NI35 = target: Inadl_9, Q8NI35
Inadl_5, Q8NI35 = target: Inadl_5, Q8NI35
LIMK2, P53671 = target: LIMK2, P53671
APBA3_1, O96018 = target: T7, APBA3_1, O96018
DLG4_3, P78352 = target: DLG4_3, P78352
TJP1_3, Q07157 = target: TJP1_3, Q07157
GIPC2, Q8TF65 = target: GIPC2, Q8TF65
IL16_3, Q14005 = target: IL16_3, Q14005
GORASP1, Q9BQQ3 = target: GORASP1, Q9BQQ3
FRMPD2_3, Q68DX3 = target: FRMPD2_3, Q68DX3
NHERF3_4, Q5T2W1 = target: T8, NHERF3_4, Q5T2W1
DLG3_3, Q92796 = target: T9, DLG3_3, Q92796

Chain of GORASP1, Q9BQQ3 (Q9BQQ3 1-208): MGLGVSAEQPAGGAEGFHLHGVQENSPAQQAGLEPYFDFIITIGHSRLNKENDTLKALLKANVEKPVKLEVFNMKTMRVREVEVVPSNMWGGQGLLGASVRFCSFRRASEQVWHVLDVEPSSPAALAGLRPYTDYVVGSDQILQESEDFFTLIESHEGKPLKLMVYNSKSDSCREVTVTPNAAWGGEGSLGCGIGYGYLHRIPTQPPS
Chain of Inadl_5, Q8NI35 (Q8NI35 673-780): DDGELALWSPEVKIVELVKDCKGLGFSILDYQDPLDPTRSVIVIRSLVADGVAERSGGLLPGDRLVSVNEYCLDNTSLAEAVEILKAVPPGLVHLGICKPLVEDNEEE
Chain of Inadl_9, Q8NI35 (Q8NI35 1530-1615): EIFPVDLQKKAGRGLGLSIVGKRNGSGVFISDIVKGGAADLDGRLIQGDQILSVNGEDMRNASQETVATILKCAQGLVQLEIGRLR
Chain of DLG5_1, Q8TDM6 (Q8TDM6 617-713): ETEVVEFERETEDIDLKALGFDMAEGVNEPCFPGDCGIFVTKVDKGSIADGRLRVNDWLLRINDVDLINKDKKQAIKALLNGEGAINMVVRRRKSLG
Chain of Inadl_4, Q8NI35 (Q8NI35 547-651): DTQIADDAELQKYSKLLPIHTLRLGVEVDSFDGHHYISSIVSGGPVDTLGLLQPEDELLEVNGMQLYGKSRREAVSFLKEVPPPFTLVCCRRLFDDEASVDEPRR
Chain of GIPC2, Q8TF65 (Q8TF65 112-203): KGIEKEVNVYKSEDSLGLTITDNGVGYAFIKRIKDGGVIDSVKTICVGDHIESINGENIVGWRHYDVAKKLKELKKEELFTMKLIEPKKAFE
Chain of LNX1_3, Q8TBB1 (Q8TBB1 500-596): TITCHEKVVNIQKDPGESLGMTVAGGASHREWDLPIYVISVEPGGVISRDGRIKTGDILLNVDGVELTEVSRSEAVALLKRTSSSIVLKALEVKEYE
Chain of Inadl_1, Q8NI35 (Q8NI35 113-229): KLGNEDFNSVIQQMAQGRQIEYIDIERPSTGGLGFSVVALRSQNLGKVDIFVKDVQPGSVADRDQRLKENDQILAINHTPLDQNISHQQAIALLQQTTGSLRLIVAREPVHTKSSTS
Chain of LIMK2, P53671 (P53671 143-248): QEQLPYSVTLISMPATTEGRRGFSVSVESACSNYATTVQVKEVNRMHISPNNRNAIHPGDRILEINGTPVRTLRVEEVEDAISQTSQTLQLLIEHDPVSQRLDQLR
Chain of FRMPD2_3, Q68DX3 (Q68DX3 1073-1166): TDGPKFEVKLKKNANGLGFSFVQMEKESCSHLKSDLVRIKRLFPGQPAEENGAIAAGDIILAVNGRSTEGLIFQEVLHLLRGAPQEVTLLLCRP
Chain of MAGI1_2, Q96QZ7 (Q96QZ7 456-580): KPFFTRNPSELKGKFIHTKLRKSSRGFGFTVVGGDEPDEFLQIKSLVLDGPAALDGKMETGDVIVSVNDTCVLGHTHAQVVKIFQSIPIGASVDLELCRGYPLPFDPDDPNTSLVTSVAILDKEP
Chain of DLG4_3, P78352 (P78352 306-403): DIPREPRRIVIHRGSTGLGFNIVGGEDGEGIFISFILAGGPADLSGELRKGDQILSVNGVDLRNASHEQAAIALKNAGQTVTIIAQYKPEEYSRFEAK
Chain of NHERF4_4, Q86UT5 (Q86UT5 464-550): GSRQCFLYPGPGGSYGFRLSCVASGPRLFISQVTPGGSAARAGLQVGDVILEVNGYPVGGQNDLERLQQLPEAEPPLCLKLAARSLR
Chain of GRID2IP_2, A4D2P6 (A4D2P6 272-370): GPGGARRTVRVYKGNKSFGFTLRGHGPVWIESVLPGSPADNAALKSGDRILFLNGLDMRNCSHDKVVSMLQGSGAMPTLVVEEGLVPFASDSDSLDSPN
Chain of TJP1_3, Q07157 (Q07157 416-512): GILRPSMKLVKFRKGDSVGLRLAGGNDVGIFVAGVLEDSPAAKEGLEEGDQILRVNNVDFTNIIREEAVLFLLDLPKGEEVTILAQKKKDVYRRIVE
Chain of AHNAK1, Q09666 (Q09666 4-100): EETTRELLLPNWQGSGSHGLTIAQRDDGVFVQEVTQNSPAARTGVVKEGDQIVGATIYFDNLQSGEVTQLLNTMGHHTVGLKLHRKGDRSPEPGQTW
Chain of NOS1, P29475 (P29475 9-101): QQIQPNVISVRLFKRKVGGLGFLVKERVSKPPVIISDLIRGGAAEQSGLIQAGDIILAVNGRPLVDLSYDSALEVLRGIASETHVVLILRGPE
Chain of IL16_3, Q14005 (Q14005 1107-1207): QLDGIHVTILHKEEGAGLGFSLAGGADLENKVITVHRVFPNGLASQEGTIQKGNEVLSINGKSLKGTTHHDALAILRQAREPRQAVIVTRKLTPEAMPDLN
Chain of FRMPD4, Q14CM0 (Q14CM0 67-160): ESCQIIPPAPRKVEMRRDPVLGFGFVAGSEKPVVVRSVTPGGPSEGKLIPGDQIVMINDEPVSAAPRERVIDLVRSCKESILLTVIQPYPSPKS

Binder	pKd (MAGI1_2, Q96QZ7)	pKd (FRMPD4, Q14CM0)	pKd (PDZRN3_1, Q9UPQ7)	pKd (NHERF4_4, Q86UT5)	pKd (Inadl_1, Q8NI35)	pKd (AHNAK1, Q09666)	pKd (GRID2IP_2, A4D2P6)	pKd (LRRC7, Q96NW7)	pKd (PDZD2_2, O15018)	pKd (SIPA1L2, Q9P2F8)	pKd (LNX1_3, Q8TBB1)	pKd (SNX27, Q96L92)	pKd (LNX2_3, Q8N448)	pKd (SHANK1, Q9Y566)	pKd (NOS1, P29475)	pKd (Inadl_4, Q8NI35)	pKd (DLG5_1, Q8TDM6)	pKd (Inadl_9, Q8NI35)	pKd (Inadl_5, Q8NI35)	pKd (LIMK2, P53671)	further results
RQSILFSTEV [BCR, P11274]	3.91	below the threshold	4.03	below the threshold	3.88	below the threshold	4.3	3.88	4.76	below the threshold	3.64	4.89	below the threshold	4.58	below the threshold	below the threshold	below the threshold	4.09	3.49	below the threshold	pKd (APBA3_1, O96018): below the threshold; pKd (DLG4_3, P78352): 3.7; pKd (TJP1_3, Q07157): below the threshold; pKd (GIPC2, Q8TF65): 3.56; pKd (IL16_3, Q14005): below the threshold; pKd (GORASP1, Q9BQQ3): below the threshold; pKd (FRMPD2_3, Q68DX3): below the threshold; pKd (NHERF3_4, Q5T2W1): 4.37; pKd (DLG3_3, Q92796): 3.86
LSEFKAMDSF [CTNNA2, P26232]	below the threshold	below the threshold	below the threshold	below the threshold	below the threshold	below the threshold	below the threshold	below the threshold	below the threshold	below the threshold	below the threshold	below the threshold	below the threshold	below the threshold	below the threshold	below the threshold	below the threshold	below the threshold	below the threshold	below the threshold	pKd (APBA3_1, O96018): below the threshold; pKd (DLG4_3, P78352): below the threshold; pKd (TJP1_3, Q07157): below the threshold; pKd (GIPC2, Q8TF65): below the threshold; pKd (IL16_3, Q14005): below the threshold; pKd (GORASP1, Q9BQQ3): below the threshold; pKd (FRMPD2_3, Q68DX3): below the threshold; pKd (NHERF3_4, Q5T2W1): below the threshold; pKd (DLG3_3, Q92796): below the threshold
PELESKESVL [SLC1A4, P43007]	below the threshold	3.85	4.46	below the threshold	below the threshold	below the threshold	3.91	3.53	4.16	below the threshold	below the threshold	5.43	below the threshold	below the threshold	3.65	below the threshold	below the threshold	below the threshold	below the threshold	below the threshold	pKd (APBA3_1, O96018): below the threshold; pKd (DLG4_3, P78352): below the threshold; pKd (TJP1_3, Q07157): below the threshold; pKd (GIPC2, Q8TF65): below the threshold; pKd (IL16_3, Q14005): below the threshold; pKd (GORASP1, Q9BQQ3): below the threshold; pKd (FRMPD2_3, Q68DX3): below the threshold; pKd (NHERF3_4, Q5T2W1): below the threshold; pKd (DLG3_3, Q92796): below the threshold
EEDTAEKDEL [HSPA5, P11021]	below the threshold	3.7	below the threshold	below the threshold	below the threshold	below the threshold	below the threshold	3.47	3.53	below the threshold	below the threshold	3.61	3.53	below the threshold	below the threshold	below the threshold	below the threshold	below the threshold	below the threshold	below the threshold	pKd (APBA3_1, O96018): below the threshold; pKd (DLG4_3, P78352): below the threshold; pKd (TJP1_3, Q07157): below the threshold; pKd (GIPC2, Q8TF65): 3.55; pKd (IL16_3, Q14005): below the threshold; pKd (GORASP1, Q9BQQ3): below the threshold; pKd (FRMPD2_3, Q68DX3): below the threshold; pKd (NHERF3_4, Q5T2W1): below the threshold; pKd (DLG3_3, Q92796): below the threshold
